In the Human Domainome abundance scans (Beltran et al. 2025):

B1: Gamma-crystallin C, residues 4 to 79; numbered along this chain, P07315 (parent)
chain: ITFYEDRAFQGRSYETTTDCPNLQPYFSRCNSIRVESGCWMLYERPNYQGQQYLLRRGEYPDYQQWMGLSDSIRSC

Variants of: B1
Test: abundance fitness (aPCA) (normalised: wild type 0, dead -1); higher = more abundant; growth selection in yeast, the domain comes from the species named
Conditions: Homo sapiens

Abundance fitness: each site, then its substitutions
N47: A 0.047; C -0.159; D -0.032; E 0.047; F -0.101; G 0.08; H -0.125; I -0.308; K 0.025; L -0.01; M -0.044; P -0.909; Q -0.179; R -0.038; S -0.115; T -0.1; V -0.181; W -0.086; Y 0.002
Y48: A -0.329; C 0.083; E -0.373; F -0.584; G -0.109; H 0.042; K -0.813; L -0.182; M 0.148; N -0.121; R -0.508; S -0.324; T -0.626; V -0.955
Q49: A -0.02; C 0.33; D -0.041; E 0.098; F -0.298; G -0.045; K -0.056; L 0.022; M -0.115; N -0.053; P -0.805; R -0.07; T 0.026; V -0.098; W -0.275; Y -0.013
G50: A -0.276; C -0.336; D -0.456; E -0.372; H -0.857; I -0.806; K -0.574; L -0.894; M -1.02; N -0.359; R -0.555; S -0.244; V -0.788
Q51: A -0.012; C -0.19; D -0.056; E -0.023; G -0.047; I 0.078; L 0.014; M -0.088; P -0.219; S -0.015; T -0.159; V -0.016; W -0.149
Q52: A -0.014; C -0.138; D 0.102; E 0.014; F 0.093; G -0.071; H 0.082; I -0.105; L -0.017; M -0.108; N -0.053; R -0.072; S -0.041; T -0.114; V -0.076; W -0.141; Y -0.326
Y53: A -0.127; C -0.113; E -0.142; F -0.015; G -0.143; I 0.131; K -0.026; M -0.005; N -0.062; P -0.947; Q -0.094; R -0.019; S 0.022; T -0.146; V -0.025; W 0.084
L54: A -0.016; C 0.085; D -0.149; E -0.004; H -0.068; I -0.135; K 0.057; M -0.044; N -0.025; P -0.092; Q 0.096; R -0.104; S -0.003; T -0.234; V 0.02; W -0.073; Y -0.393
L55: A -0.368; C -0.178; D -0.807; F -0.246; G -0.571; H -1.03; I 0.038; K -0.853; M -0.237; N -0.85; R -0.794; S -0.701; T -0.318; V -0.048; W -0.631; Y -0.04
R56: A -0.019; C 0.086; D -0.107; E 0.005; F 0.195; K -0.018; L -0.062; M 0.118; N 0.034; P -0.115; Q -0.003; S -0.611; T 0.071; V 0.039; W -0.029; Y 0.255
R57: A 0.046; C 0.142; E 0.064; F 0.059; G 0.051; H 0.001; I -0.053; K 0.049; L -0.059; M 0.07
